Reference: the supplement of paper PMC10567573
± gives the standard deviation.

Test: protein stability index of a GFP-peptide fusion (GPS, HEK-293T) (PSI 1-6); higher = more stable
[1] = treatment: DMSO, c terminus: a fixed tail appended
[2] = treatment: MLN4924 1 uM, 8 h, c terminus: a fixed tail appended
[3] = treatment: DMSO, c terminus: native
[4] = treatment: MLN4924 1 uM, 8 h, c terminus: native
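Note: 24-mer peptide tiles fused after GFP, lentivirally expressed, FACS-sorted into six equal bins by GFP/DsRed ratio, decoded by Illumina sequencing, PSI is the read-weighted mean bin number.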

Sequence | protein stability index [1] | protein stability index [2] | protein stability index [3] | protein stability index [4]
RAKDLVELDPEVEGTKPSATEMIW [GOLPH3L] | 4.07 ± 0.23 | 4.13 ± 0.45 | – | –
RALHWAAYMGHLDVVALLINHGAE [ANKRD44] | 2.56 ± 0.43 | 3.12 ± 0.66 | – | –
CCINSHCGWPRGKDAPCYESDTDI [DRICH1] | 2.94 ± 0.3 | 3.02 ± 0.29 | – | –
PATGRSGPLPPPPPGAGGPPMPPP [WAS] | 4.74 ± 0.28 | 4.88 ± 0.22 | – | –
AQSEAEKKLKKDDKKKELQELNEL [ZC3H15] | 5.56 ± 0.23 | 5.53 ± 0.21 | – | –
YFTKSGFHPDPRQKALYRRLATVH [CLPTM1] | 2.12 ± 0.41 | 2.35 ± 0.22 | – | –
TRAADLLVNPLDPRNADKIRVKIA [SRPK2] | 3.64 ± 0.48 | 3.75 ± 0.23 | – | –
LYGTKGNYTSRVWEYSSSIQNSDN [TRIM29] | 3.04 ± 0.2 | 2.83 ± 0.26 | – | –
WYQVRCLFQSPLFAKAGDTLSGTC [CARM1] | 2.77 ± 0.72 | 2.35 ± 0.53 | – | –
ASDYSKKSNVLKLKTADWRVFLFQ [PSD2] | 2.12 ± 0.42 | 2.23 ± 0.19 | – | –
LNLEEDRIQIWFQNRRAKLKRSHR [HESX1] | 2.86 ± 0.18 | 3.16 ± 0.36 | – | –
YGLRGPHKADSIQGTARTLSPVLE [TNXB] | 3.93 ± 0.36 | 3.84 ± 0.14 | – | –
DRVVAFMDHIRIFQEQVEKLKALH [NR2F2] | 2.28 ± 0.36 | 2.22 ± 0.36 | – | –
QKGLGGAMVWALDLDDFAGFSCNQ [CHIT1] | 2.31 ± 0.32 | 2.42 ± 0.16 | – | –
LPNHRAAKRLWKVCVEHHTFFRLL [EPB41L3] | 2.42 ± 0.34 | 2.36 ± 0.13 | – | –
SSHSRGPLSWAPCGPIAGSRQALS | 3.42 ± 0.13 | 3.44 ± 0.17 | – | –
KAEPRLPDRVYIHPDSPATGAHWM [TBX6] | 3.09 ± 0.12 | 3.23 ± 0.35 | – | –
EAASFLQILPVLDFCKVFLISGVT [KLHL13] | 3.43 ± 0.78 | 2.96 ± 0.13 | – | –
ITYQPAASTKMCEQALGKGCGADS [PLK2] | 4.06 ± 0.36 | 4.44 ± 0.24 | – | –
CPRIAPADSGRYRASPTRTAPLPM [ELOA2] | 3.63 ± 0.17 | 3.76 ± 0.41 | – | –
VRTSYQPSSPGRFTKETTQKNFNN [TRIM29] | 3.93 ± 0.15 | 3.88 ± 0.22 | – | –
SPQFEGPLSPPPINYNGIFSLKQE [NEUROD6] | 3.96 ± 0.11 | 4.05 ± 0.17 | – | –

Sequence | protein stability index [1] | protein stability index [2] | protein stability index [3] | protein stability index [4]
GPSLVPGKTPTVRAALICLTLVLV [CD207] | 2.28 ± 0.44 | 2.73 ± 0.62 | – | –
GTPMALIVISYIHVAAAVLRIRSV [OR3A1] | 3.16 ± 0.48 | 3.24 ± 0.074 | – | –
AHQHRDKMQQSKNQVVSSTNGELN [CSNK1G3] | 5.02 ± 0.42 | 5.1 ± 0.25 | – | –
RKNPYPTKGEKIMLAIITKMTLTQ [IRX6] | 2.61 ± 1 | 2.74 ± 0.62 | – | –
KTPVLLTDYPVDLDEIAYFTWAS [MYORG] | – | – | 2.25 ± 0.15 | 2.18 ± 0.3
VHSDLSSIVILDNSPGAYRSHPDN [CTDNEP1] | 3.6 ± 0.15 | 3.72 ± 0.27 | – | –
QLLTLRELEMIGFIENNVSKLSLL [TRIP13] | 2.51 ± 0.28 | 2.66 ± 0.52 | – | –
SSISPGLHSFTDHQRLMKRRKSV [KCNK9] | – | – | 5.64 ± 0.088 | 5.47 ± 0.23
KASWSSLSMDEKVELYRIKFKESF [COX4I1] | 2.55 ± 0.56 | 2.85 ± 0.44 | – | –
WEYPGSQGSPAVDKERFTTLVQDL [CHIT1] | 3.9 ± 0.25 | 3.89 ± 0.19 | – | –
CMKIPTGQEYAAKIINTKKLSARD [CAMK2D] | 3.7 ± 0.69 | 3.83 ± 0.42 | – | –
QRAEMLPKTSGTRATSLGRPEEEE [CPOX] | 5.47 ± 0.37 | 5.49 ± 0.28 | – | –
ELVHFLLLKYRAREPVTKAEMLGS [MAGEA3] | 2.54 ± 0.63 | 2.73 ± 0.92 | – | –
PLVTMDDAMERTVQSFRHLRRVK [NSDHL] | – | – | 3 ± 0.25 | 3.23 ± 0.18
CAECSQYLDETCTCFVRDGKTYCK [ISL2] | 4.98 ± 0.29 | 4.74 ± 0.37 | – | –
NVIETCKEAGVQKLILTSSASVIF [NSDHL] | 2.69 ± 0.27 | 2.86 ± 0.71 | – | –
EGKSRHVDFQCVKSKSITNLAAAA [BTBD10] | 3.48 ± 0.43 | 3.9 ± 0.28 | – | –
VELLKNLTKYPTDRDSIWKCLKFL [INTS4] | 2.63 ± 0.28 | 2.08 ± 0.22 | – | –
RHMEAVKAQLLEQAQGQLRELLDR [SOAT2] | 3.07 ± 0.37 | 3.08 ± 0.086 | – | –
DLPINVFKLLAGRWPFDHNDFGVF [EDNRA] | 2.19 ± 0.7 | 2.19 ± 0.45 | – | –
VVAILAAACLLQLDGLIQQCGETM [GMCL1] | 3.23 ± 0.42 | 2.92 ± 0.39 | – | –
MPNGCSDDVLPWRRTAENKLDTKY [DCTD] | 4 ± 0.1 | 3.87 ± 0.29 | – | –

Sequence | protein stability index [1] | protein stability index [2] | protein stability index [3] | protein stability index [4]
VQITGQPNILFYASTVLKSVGFQS [SLC2A12] | 3.12 ± 0.57 | 2.58 ± 0.45 | – | –
IVISYIHVAAAVLRIRSVEGRKKA [OR3A1] | 2.37 ± 0.6 | 2.05 ± 0.21 | – | –
VLQALFYLLDRAVDSFETQRNGLV [PTPN9] | 2.45 ± 0.98 | 2.66 ± 0.62 | – | –
SMWTRPQIKDFKEKIQQDADSVIT [ACBD3] | 3.88 ± 0.2 | 4.08 ± 0.42 | – | –
ICAAAGRMGATMAAINSIYSNTDA [GLT8D2] | 2.26 ± 0.43 | 2.2 ± 0.34 | – | –
KSLSELVDDKFGTGTKKVTRILDG [PSD2] | 4.44 ± 0.18 | 4.53 ± 0.23 | – | –
QDIENALSTSSSPSGTPTNLRRHV [DLC1] | 4.96 ± 0.17 | 4.94 ± 0.2 | – | –
CRPLLPSCTTRLCQEEQLRSHENK [PSD2] | 4 ± 0.13 | 3.88 ± 0.34 | – | –
MKRDVQEGQARCLAHLGRHMEALE [C8orf76] | 3.66 ± 0.22 | 3.97 ± 0.35 | – | –
CERHEKGVLHKHQRALHKYSLMKR [SNX8] | 3.56 ± 0.29 | 3.8 ± 0.31 | – | –
SVGFQSNEAASLASTGVGVVKVIS [SLC2A12] | 3.68 ± 0.64 | 3.6 ± 0.41 | – | –
FTFLSAKCLQGNADGDGGGGQCCR [PCDHGC5] | 2.97 ± 0.18 | 3.29 ± 0.26 | – | –
LSQRTITVGVYEAAKLLNVDPDNV [GADD45A] | 3.16 ± 0.29 | 3.14 ± 0.19 | – | –
MLRTGLGVIRMWADEGSRNSRFQM [NETO1] | 2.5 ± 0.11 | 2.39 ± 0.4 | – | –
VQREKDLPNYNWNSFGLRFGKREA [KISS1] | 3.28 ± 0.12 | 3.19 ± 0.18 | – | –
LFDNPKLDKELRAMLREKFPEFCS [INTS3] | 2.03 ± 0.32 | 2.54 ± 0.31 | – | –
DESVVMPESQMCRKFSRECEDQKQ [NEUROD6] | 5.46 ± 0.3 | 5.43 ± 0.24 | – | –
NDLDRIAQPNYIPTQQDVLRTRVK [GNAI1] | 4.81 ± 0.13 | 4.92 ± 0.15 | – | –
TVEEAKAEKETELSLQKEQLQLKI [TRIM29] | 5.1 ± 0.27 | 5.33 ± 0.3 | – | –
LVEKGVLTTEKQNFLLFDMTTHPL [GOLPH3] | 2.51 ± 0.27 | 2.5 ± 0.3 | – | –
RNYLNYGEEGAPGKWQQQGDLQDT [CHGB] | 4.86 ± 0.14 | 4.94 ± 0.39 | – | –
